Results reported in patent US20230112123A1 (published 2023).

Molecular target: T1, human CD70 (human, UniProt P32970 1-193)
T1 chain: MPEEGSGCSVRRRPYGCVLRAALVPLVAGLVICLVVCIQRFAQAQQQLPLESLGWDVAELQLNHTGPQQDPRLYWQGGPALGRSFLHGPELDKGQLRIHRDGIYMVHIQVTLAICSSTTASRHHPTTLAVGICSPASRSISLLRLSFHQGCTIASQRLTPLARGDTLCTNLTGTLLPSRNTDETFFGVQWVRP
Test: FACS blocking of CD27(ECD)-Fc binding; CHO-CD70 cells

B1: IMM40H (antibody, V domains shown)
VH: QVQLVQSGAEVKKPGASVKVSCKVSGYTFTDSALHWVRQAPGKGLEWMGVISTYDGDTDYNQKFKGRVTMTEDTSTDTAYMELSSLRSEDTAVYYCARRGYYDYDWFPYWGQGTLVTVSA
VL: DIVLTQSPASLAVSPGQRATITCRASKSVSASGYSFLHWYQQKPGQPPKLLIYLASNLESGVPARFSGSGSGTDFTLTINPVEANDTANYYCQHSRELPPTFGGGTKVEIKR
IC50: 2.04 nM

B2: Cusatuzumab (antibody, V domains shown)
VH: EVQLVESGGGLVQPGGSLRLSCAASGFTFSVYYMNWVRQAPGKGLEWVSDINNEGGTTYYADSVKGRFTISRDNSKNSLYLQMNSLRAEDTAVYYCARDAGYSNHVPIFDSWGQGTLVTVSS
VL: QAVVTQEPSLTVSPGGTVTLTCGLKSGSVTSDNFPTWYQQTPGQAPRLLIYNTNTRHSGVPDRFSGSILGNKAALTITGAQADDEAEYFCALFISNPSVEFGGGTQLTVLG
IC50: 2.39 nM
